The values below come from patent US20240360204A1 (UNITED STATES GOVERNMENT AS REPRESENTED BY THE DEPARTMENT …, published 2024).

In general, Kd refers to the equilibrium constant for the complex coming apart.

Assay [1] concerns the target T1, Oxygen stable streptolysin O (SLOwt) from Streptococcus pyogenes, recombinant, N-terminal His-tag, BirA … (Streptococcus pyogenes, UniProt Q5XE40 32-571, limits assumed, mono-biotinylated at the BirA (AviTag) site where biotinylated SLOwt was used (ELISA; one lane of the Western blot)).
T1 construct: The oxygen-stability change (C to A at position 555) and the tags are kept; also called WT SLO
In words: ELISA. In general terms: In an ELISA, binding on a coated surface is turned into a signal by an enzyme label.

The target of assay [2] is T1, Oxygen stable streptolysin O (SLOwt) …. Briefly: cell-based or functional assay.

B1: hu55L17κ (antibody, human IgG1, V domains shown)
VH: QVQLVQSGAEVKKPGSSVKVSCRPPGGTLSNYAINWVRQAPGQGLEWMGGIVPMFSTTKYAQKFQGRLTLTADLSTITAHMELNRLTSEDTAVYYCARDLPAPYCSADLCYKVLDAFDVWGQGTLVTVSS
VL: EIVLTQSPSSLSASVGDRVTITCQASQDISNYLNWYQQKPGKAPKLLIYKASSLESGVPSRFSGSGSGTEFTLTITRLQPDDFATYYCQQYEEYLRYSFGQGTKLEIK
notes: also called 55L17 IgG antibody
Turning to B1, in assay [1], the Kd turned out to be 0.078 nM. Also, in assay [2], the “aCTX IC50 (M): anti-cytotoxicity on epithelial cells (A549)” value (from here on “aCTX IC50 (M): anti-cytotoxicity”) was 1.1e-09 M and the “aHU IC50 (M): neutralization of SLOwt-induced RBC hemolysis” value (shortened to “aHU IC50 (M): neutralization”) was determined as 2.7e-09 M.

B2: hu55G4λ (antibody, human IgG1, V domains shown)
VH: EVQLVQSGGGAVQPGRSLRLSCAVSGFTFSNFPMHWVRQAPGRGLEWVAVISHDETMIYYLDSVKGRFTISRDNSRNIVYLQMHSLRVEDTAVYYCARDTGVCSGGYCYTPRYFDQWGQGTLVTVSS
VL: QPVLTQPPSVSVAPGKTADITCGGDNIGRKHVHWYRQRPSQAPLLVIYDDSDRPSGIPERLSGINSGNTATLTISGVEVGDEADYYCQVWDNDAEQWVFGGGTKLTV
notes: also called 55G4 IgG antibody; 55LG4
Turning to B2, the Kd in assay [1] came out at 0.046 nM. In assay [2], the “aCTX IC50 (M): anti-cytotoxicity” value was 5.1e-09 M, the “aHU IC50 (M): neutralization” value is 6.3e-09 M, the “aMBEP IC50 (M): anti-membrane binding on epithelial cells” value was 2e-09 M and the “aMBRBC IC50 (M): anti-membrane binding on RBCs” value came to 7.9e-09 M.

B3: hu55C11λ (antibody, human IgG1, V domains shown)
VH: QVQLVESGGGLVKPGGSLRLSCAASGFTFSSHSMNWVRQTPGKGLEWVSSINTISTFIYYADSVKGRFTVSRDNARNSLFLQMNTLTADDTGVYYCARERGNRFCDGDCYSGTTFDYWGPGTLVTVSS
VL: QPVLTQPPSVSVAPGRTSRITCEENNIGTKNVHWYQQKPGQAPLLVVHDDSDRPSGIPERFSGSNSGNTATLTISRVEAGDEADYYCQVWDSDNDRWLFGGGTRLTVLG
notes: also called 55c11 IgG antibody
In the case of B3, in assay [1], the Kd stood at 0.038 nM. In assay [2], the “aCTX IC50 (M): anti-cytotoxicity” value amounted to 2.6e-09 M, the “aHU IC50 (M): neutralization” value was 4.4e-09 M, the “aMBEP IC50 (M): anti-membrane binding on epithelial cells” value was found to be 1.1e-09 M and the “aMBRBC IC50 (M): anti-membrane binding on RBCs” value came out at 1.3e-09 M.
